# Where a chain is given by its changes, count along the chain named.
# B1: Nb C3 (purified, C-terminal His6 tag) (VHH)
# VHH: QVQLQESGGGLVQTGGSLRLSCAASGSTVSSSMMAWWRQTPGNQRELVALVASGNNTNYVDSVKGRFTVSRDNAKNTMYLQMNSLKPEDTAVYYCRILSVNGIWYWGQGTQVTVSS
# notes: source: E. coli (pHEN6), purified; not shown: His6, C-terminal, kept
# B2: Nb E4 (purified, C-terminal His6 tag) (VHH)
# VHH: QVQLQESGGGLVHPGGSLRLSCATSGSIFSIISMGWYRQAPGKQRELVALVFRGGSTVYADSVKGRFTISGDIAKSTVYLQMDSLKPEDTAVYYCNAKPIGTAQYWGQGTQVTVSS
# notes: as for B1
# B3: Nb E2 (purified, C-terminal His6 tag) (VHH)
# VHH: B2 VHH with H13Q, P14A, S76N, A97V, P99S, V112I
# notes: as for B1
# B4: Nb C7 (purified, C-terminal His6 tag) (VHH)
# VHH: QVQLQESGGGSVQAGESLTLSCTASGSSLSHKSVGWWRQTPGNQRELVALVASGNNTNYVDSVKGRFTVSRDNAKNTMYLQMNSLKPEDTAVYYCRILSVNGIWYWGQGTQVTVSS
# notes: as for B1
# B5: Nb A1 (HA-tagged, in periplasmic extract) (VHH)
# VHH: QVQLQESGGGLVQPGGSLRLSCAASGFTLDYYAIGWFRQAPGKEREGVSCISSSDGSTYYADSVKGRFTISRDNAKNTVYLQMSSLKPEDTAVYYCGISGSCLLEDYGMDYWGKGTQVTVSS
# notes: source: E. coli WK6 (pHEN4), crude periplasmic extract
# B6: Nb I1 (HA-tagged, in periplasmic extract) (VHH)
# VHH: QVQLQESGGGLVQAGGSLRLSCAASGRTFRRYDMGWFRQAPGKEREFVAASTWSADDTYYAGSVKGRFTISRDNAKNTVYLQMNSLKPEDTAVYYCAAGETRKYGFRTTEGYYDSWGQGTQVTVSS
# notes: as for B5
# B7: Nb G5 (HA-tagged, in periplasmic extract) (VHH)
# VHH: QVQLQESGGGLVQPGGSLRLSCAASGSFFRTYIVSWYRQAPGKRREAVAVMSNSGNTNYADSVKGRFTISRDNAVNTVYLQMNSLKPEDTAVYYCNLLKVTVPPANYWGQGTQVTVSS
# notes: as for B5
# B8: Nb G6 (HA-tagged, in periplasmic extract) (VHH)
# VHH: B7 VHH with G16E, A23V
# notes: as for B5
# B9: Nb G7 (HA-tagged, in periplasmic extract) (VHH)
# VHH: B7 VHH with P14S
# notes: as for B5
# B10: Nb C15 (HA-tagged, in periplasmic extract) (VHH)
# VHH: QVQLQESGGGLVQTGGSLRVSCAVSGSTVSRSTMAWWRQTPGNQRELVALVDSGGKSNYVDSVKGRFTISTDNAKNTMYLQMNSLKPEDTAVYYCRILSVQGIWYWGQGTQVTVSS
# notes: as for B5
# B11: Nb C16 (HA-tagged, in periplasmic extract) (VHH)
# VHH: B10 VHH with T14A, R19K, R31S, Q101K
# notes: as for B5
# B12: Nb G1 (HA-tagged, in periplasmic extract) (VHH)
# VHH: QVQLQESGGGLVQPGGSLRLSCAASGSISSFNFMGWYRQAPGKQRELVALSTNSGVTNVAGSVKGRFTISRDNAKTTVYLQMNSLKPEDTAVYYCRVGAMGNLYWGQGTQVTVSS
# notes: as for B5
# B13: Nb G2 (HA-tagged, in periplasmic extract) (VHH)
# VHH: B12 VHH with A23V
# notes: as for B5
# B14: Nb G3 (HA-tagged, in periplasmic extract) (VHH)
# VHH: B12 VHH with P14T
# notes: as for B5
# B15: Nb G4 (HA-tagged, in periplasmic extract) (VHH)
# VHH: B12 VHH with P14A
# notes: as for B5
# B16: Nb C6 (HA-tagged, in periplasmic extract) (VHH)
# VHH: B1 VHH with T14A, G16D
# notes: as for B5
# B17: Nb C12 (HA-tagged, in periplasmic extract) (VHH)
# VHH: B1 VHH with M33T, N55G, P87A
# notes: as for B5
# B18: Nb C14 (HA-tagged, in periplasmic extract) (VHH)
# VHH: B1 VHH with S30G, M33T, A52G, S53L, N55G, R71I, K75E, P87F
# notes: as for B5
# B19: Nb C10 (HA-tagged, in periplasmic extract) (VHH)
# VHH: B1 VHH with M33T, N55G, V100M
# notes: as for B5
# B20: Nb C3 (HA-tagged, in periplasmic extract) (VHH)
# VHH: B1 VHH
# notes: as for B5
# B21: Nb C11 (HA-tagged, in periplasmic extract) (VHH)
# VHH: B1 VHH with M33T, N55G
# notes: as for B5
# B22: Nb C9 (HA-tagged, in periplasmic extract) (VHH)
# VHH: B1 VHH with T14A, G16E, A24G, M33T, N55G, V100M
# notes: as for B5
# B23: Nb C1 (HA-tagged, in periplasmic extract) (VHH)
# VHH: B1 VHH with S53R
# notes: as for B5
# B24: Nb C13 (HA-tagged, in periplasmic extract) (VHH)
# VHH: B1 VHH with M33T, W37Y, E46D, A52G, N55G, T57I, R71I
# notes: as for B5
# B25: Nb M1 (HA-tagged, in periplasmic extract) (VHH)
# VHH: VQAGDSLRLACTLFKYPTNNLCLAWFRQAPGKEREGVAALNTDGVGTYYAKSVEGRFTISQDKSKNEGYLQMDNLKPEDTAIYYCAADPTSRCNNYVQGRWWHEIGSRVWDWGQGTQVTVSS
# notes: as for B5
# B26: Nb D1 (HA-tagged, in periplasmic extract) (VHH)
# VHH: QVQLQESGGGLVQAGGSLRLSCAASGITVSINAMAWYRQPPGKQRELVALIIGGSTRYADSVKGRFTISRDNAKNTVYLQMNSLKPEDTAVYACNTRAYWGQGTQVTVSS
# notes: as for B5
# B27: Nb B1 (HA-tagged, in periplasmic extract) (VHH)
# VHH: QVQLQESGGGLVHPGGSLRLSCAASGFSLDNYAIGWFRQAPGKEREGVSCISSGSEGRRYYADFVKGRFTISRDNAKNTAFLQMNSLKPEDTADYYCATVGFCSSQYGMEFVGDYWGQGTQVTVSS
# notes: as for B5
# B28: Nb E1 (HA-tagged, in periplasmic extract) (VHH)
# VHH: B2 VHH with H13Q, P14A, S76N, A97V, P99S
# notes: as for B5
# B29: Nb E6 (HA-tagged, in periplasmic extract) (VHH)
# VHH: B2 VHH with H13Q, P14A
# notes: as for B5
# B30: Nb E2 (HA-tagged, in periplasmic extract) (VHH)
# VHH: B2 VHH with H13Q, P14A, S76N, A97V, P99S, V112I
# notes: as for B5
# B31: Nb E5 (HA-tagged, in periplasmic extract) (VHH)
# VHH: B2 VHH with H13Q
# notes: as for B5
# B32: Nb L1 (HA-tagged, in periplasmic extract) (VHH)
# VHH: VQAGGSLRLSCAASGYRYCRYDMSWYRQAPGKEREFVSAIDSYGSPTYADTVLGRFTISRDNAKNTVYLQMNSLKAEDTAMYYCKIDSTGWSSRCGKTYWGQGTQVTVSS
# notes: as for B5
# B33: Nb C7 (HA-tagged, in periplasmic extract) (VHH)
# VHH: B4 VHH
# notes: as for B5
# B34: Nb C4 (HA-tagged, in periplasmic extract) (VHH)
# VHH: QVQLQESGGGLVQPGGSLRLSCAASGSTVSSSMMAWWRQTPGNQRELVALVASGNNTNYVDSVKGRFTVSRDNAKNTMYLQMNGLKPEDTAVYYCRLSVNGIWYWGQGTQVTVSS
# notes: as for B5
# Molecular target: T1, His-tagged recombinant human PD-L1 protein (Sino Biological #10084-H08H) (Homo sapiens, UniProt Q9NZQ7)
# T1 construct: programmed death-ligand 1 (PD-L1, B7-H1, CD274), human; also called huPD-L1; source: bought: Sino Biological (#10084-H08H)
# T1 sequence (Q9NZQ7 19-238): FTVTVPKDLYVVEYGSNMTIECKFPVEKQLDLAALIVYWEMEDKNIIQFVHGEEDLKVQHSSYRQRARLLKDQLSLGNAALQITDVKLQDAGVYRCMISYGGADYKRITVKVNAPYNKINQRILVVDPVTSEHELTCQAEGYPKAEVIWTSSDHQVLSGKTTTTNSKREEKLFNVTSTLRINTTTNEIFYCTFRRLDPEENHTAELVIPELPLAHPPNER
# Assay: SPR; Biacore T200, 25°C, HBS (0.01 M HEPES pH 7.4, 0.15 M NaCl, 3 mM EDTA, 0.005% Tween 20); His-tagged recombinant human PD-L1 amine-coupled on a CM5 chip (650-900 RU); purified Nb as analyte, 9 dilutions (0.15-1000 nM), 120 s association, 160 s dissociation; 1-to-1 fit; n = 1
# Conditions: both partners purified
row,Kd,Binder
1,170 nM,B1
2,46.1 nM,B2
3,55.1 nM,B3
4,74.5 nM,B4

# Molecular target: T2, Human PD-L1 Fc-fusion protein (R&D Systems, 156-B7) (Homo sapiens, UniProt Q9NZQ7)
# T2 construct: programmed death-ligand 1 (PD-L1, B7-H1, CD274), human; also called huPD-L1; B7-H1; source: bought: R&D Systems (156-B7)
# T2 sequence (Q9NZQ7 19-238): as above
# Assay: SPR; Biacore T200, 25°C, HBS (0.01 M HEPES pH 7.4, 0.15 M NaCl, 3 mM EDTA, 0.005% Tween 20); mouse or human PD-L1 Fc-fusion protein amine-coupled on a CM5 chip (650-900 RU); Nb in crude periplasmic extract as analyte, its concentration estimated by CFCA; 9 dilutions, 120 s association, 160 s dissociation; 1-to-1 fit; affinity estimations
# Conditions: one partner purified
row,Kd,Binder
1,23 nM,B5
2,322 nM,B6
3,16 nM,B7
4,21 nM,B8
5,129 nM,B9
6,335 nM,B10
7,520 nM,B11
8,50 nM,B12
9,158 nM,B13
10,907 nM,B14
11,74 nM,B15
12,94 nM,B16
13,181 nM,B17
14,71 nM,B18
15,141 nM,B19
16,32 nM,B20
17,246 nM,B21
18,44 nM,B22
19,143 nM,B23
20,162 nM,B24
21,17 nM,B25
22,291 nM,B26
23,6 nM,B27
24,12 nM,B28
25,217 nM,B29
26,94 nM,B30
27,54 nM,B31
28,34 nM,B32
29,27 nM,B33
30,342 nM,B34

# Molecular target: T3, Mouse PD-L1 Fc-fusion protein (R&D Systems, 1019-B7) (Mus musculus, UniProt Q9EP73)
# T3 construct: programmed death-ligand 1 (PD-L1, B7-H1, CD274), mouse; also called moPD-L1; B7-H1; source: bought: R&D Systems (1019-B7)
# T3 sequence (Q9EP73 19-239): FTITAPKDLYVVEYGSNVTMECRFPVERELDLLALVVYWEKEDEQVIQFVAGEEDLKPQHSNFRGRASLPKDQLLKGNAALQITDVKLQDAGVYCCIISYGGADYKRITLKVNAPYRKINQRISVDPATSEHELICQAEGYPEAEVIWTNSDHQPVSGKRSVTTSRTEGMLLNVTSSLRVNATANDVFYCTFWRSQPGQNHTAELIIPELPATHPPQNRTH
# Assay: as above
# Conditions: one partner purified
row,Kd,Binder
1,67 nM,B6
2,3.9 nM,B7
3,5 nM,B8
4,3.4 nM,B9
5,6.5 nM,B10
6,15 nM,B11
7,4.4 nM,B12
8,5.5 nM,B13
9,5 nM,B14
10,6.2 nM,B15
11,0.289 nM,B16
12,11.4 nM,B17
13,1.8 nM,B18
14,6.7 nM,B19
15,0.14 nM,B20
16,12 nM,B21
17,2.2 nM,B22
18,0.327 nM,B23
19,33 nM,B24
20,13 nM,B25
21,12 nM,B26
22,123 nM,B27
23,2.3 nM,B28
24,6.9 nM,B29
25,5.6 nM,B30
26,14 nM,B31
27,15 nM,B32
28,3.1 nM,B33
29,0.187 nM,B34
